*1 amine or outer side, *2 acyl side, *3 side chain or, on linkers, in order; H or OH if unused. Where no end group is shown, it is not given here. Side-chain parts run from the residue outwards. [ ]: non-standard residue; d: D form. The star is where a group is joined. C20 diacid = O=C(O)CCCCCCCCCCCCCCCCCCC(=O)*; C18 diacid = O=C(O)CCCCCCCCCCCCCCCCC(=O)*; γGlu = O=C(O)[C@H](CCC(=O)[*:2])N[*:1]; NMeY = CN[C@@H](Cc1ccc(O)cc1)C(=O)O; AEEA = NCCOCCOCC(=O)O; Aib = CC(C)(N)C(=O)O
T1: human GIP receptor (human, UniProt P48546 22-466)
T1 sequence (looked up): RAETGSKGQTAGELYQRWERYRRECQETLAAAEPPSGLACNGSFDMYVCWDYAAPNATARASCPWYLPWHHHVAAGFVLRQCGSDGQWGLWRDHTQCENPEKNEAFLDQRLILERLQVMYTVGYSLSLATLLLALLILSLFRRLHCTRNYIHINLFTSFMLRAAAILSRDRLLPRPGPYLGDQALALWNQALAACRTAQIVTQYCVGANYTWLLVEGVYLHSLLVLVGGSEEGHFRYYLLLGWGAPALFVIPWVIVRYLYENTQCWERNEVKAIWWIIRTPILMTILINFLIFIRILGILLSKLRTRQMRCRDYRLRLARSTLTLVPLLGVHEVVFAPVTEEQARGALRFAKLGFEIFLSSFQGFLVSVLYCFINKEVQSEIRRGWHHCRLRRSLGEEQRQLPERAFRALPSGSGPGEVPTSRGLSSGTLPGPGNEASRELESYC

B1: SEQ ID NO: 4 (peptide)
peptide: Y[Aib]EGTFISDLSI[Aib]K([AEEA-AEEA-γGlu-C18 diacid])DRIHQ[Aib]EFIEWLLAQGPSSGAPPPS-NH2
modifications: N-terminus assumed
SMILES: CC[C@H](C)[C@H](NC(=O)[C@H](CCCNC(=N)N)NC(=O)[C@H](CC(=O)O)NC(=O)[C@H](CCCCNC(=O)COCCOCCNC(=O)COCCOCCNC(=O)CC[C@H](NC(=O)CCCCCCCCCCCCCCCCC(=O)O)C(=O)O)NC(=O)C(C)(C)NC(=O)[C@@H](NC(=O)[C@H](CO)NC(=O)[C@H](CC(C)C)NC(=O)[C@H](CC(=O)O)NC(=O)[C@H](CO)NC(=O)[C@@H](NC(=O)[C@H](Cc1ccccc1)NC(=O)[C@@H](NC(=O)CNC(=O)[C@H](CCC(=O)O)NC(=O)C(C)(C)NC(=O)[C@@H](N)Cc1ccc(O)cc1)[C@@H](C)O)[C@@H](C)CC)[C@@H](C)CC)C(=O)N[C@@H](Cc1c[nH]cn1)C(=O)N[C@@H](CCC(N)=O)C(=O)NC(C)(C)C(=O)N[C@@H](CCC(=O)O)C(=O)N[C@@H](Cc1ccccc1)C(=O)N[C@H](C(=O)N[C@@H](CCC(=O)O)C(=O)N[C@@H](Cc1c[nH]c2ccccc12)C(=O)N[C@@H](CC(C)C)C(=O)N[C@@H](CC(C)C)C(=O)N[C@@H](C)C(=O)N[C@@H](CCC(N)=O)C(=O)NCC(=O)N1CCC[C@H]1C(=O)N[C@@H](CO)C(=O)N[C@@H](CO)C(=O)NCC(=O)N[C@@H](C)C(=O)N1CCC[C@H]1C(=O)N1CCC[C@H]1C(=O)N1CCC[C@H]1C(=O)N[C@@H](CO)C(N)=O)[C@@H](C)CC
notes: Exendin-4 derived synthetic lipidated peptide of formula I
B2: SEQ ID NO: 7 (peptide)
peptide: Y[Aib]EGTFISDLSI[Aib]K([AEEA-AEEA-γGlu-C20 diacid])DRIHQ[Aib]EFIEWLLAQGPSSGAPPPS-NH2
modifications: N-terminus assumed
SMILES: CC[C@H](C)[C@H](NC(=O)[C@H](CCCNC(=N)N)NC(=O)[C@H](CC(=O)O)NC(=O)[C@H](CCCCNC(=O)COCCOCCNC(=O)COCCOCCNC(=O)CC[C@H](NC(=O)CCCCCCCCCCCCCCCCCCC(=O)O)C(=O)O)NC(=O)C(C)(C)NC(=O)[C@@H](NC(=O)[C@H](CO)NC(=O)[C@H](CC(C)C)NC(=O)[C@H](CC(=O)O)NC(=O)[C@H](CO)NC(=O)[C@@H](NC(=O)[C@H](Cc1ccccc1)NC(=O)[C@@H](NC(=O)CNC(=O)[C@H](CCC(=O)O)NC(=O)C(C)(C)NC(=O)[C@@H](N)Cc1ccc(O)cc1)[C@@H](C)O)[C@@H](C)CC)[C@@H](C)CC)C(=O)N[C@@H](Cc1c[nH]cn1)C(=O)N[C@@H](CCC(N)=O)C(=O)NC(C)(C)C(=O)N[C@@H](CCC(=O)O)C(=O)N[C@@H](Cc1ccccc1)C(=O)N[C@H](C(=O)N[C@@H](CCC(=O)O)C(=O)N[C@@H](Cc1c[nH]c2ccccc12)C(=O)N[C@@H](CC(C)C)C(=O)N[C@@H](CC(C)C)C(=O)N[C@@H](C)C(=O)N[C@@H](CCC(N)=O)C(=O)NCC(=O)N1CCC[C@H]1C(=O)N[C@@H](CO)C(=O)N[C@@H](CO)C(=O)NCC(=O)N[C@@H](C)C(=O)N1CCC[C@H]1C(=O)N1CCC[C@H]1C(=O)N1CCC[C@H]1C(=O)N[C@@H](CO)C(N)=O)[C@@H](C)CC
notes: as for B1
B3: SEQ ID NO: 8 (peptide)
peptide: [NMeY][Aib]EGTFISDLSI[Aib]K([AEEA-AEEA-γGlu-C18 diacid])DRIHQ[Aib]EFIEWLLAQGPSSGAPPPS-NH2
modifications: N-terminus assumed
SMILES: CC[C@H](C)[C@H](NC(=O)[C@H](CCCNC(=N)N)NC(=O)[C@H](CC(=O)O)NC(=O)[C@H](CCCCNC(=O)COCCOCCNC(=O)COCCOCCNC(=O)CC[C@H](NC(=O)CCCCCCCCCCCCCCCCC(=O)O)C(=O)O)NC(=O)C(C)(C)NC(=O)[C@@H](NC(=O)[C@H](CO)NC(=O)[C@H](CC(C)C)NC(=O)[C@H](CC(=O)O)NC(=O)[C@H](CO)NC(=O)[C@@H](NC(=O)[C@H](Cc1ccccc1)NC(=O)[C@@H](NC(=O)CNC(=O)[C@H](CCC(=O)O)NC(=O)C(C)(C)NC(=O)[C@H](Cc1ccc(O)cc1)NC)[C@@H](C)O)[C@@H](C)CC)[C@@H](C)CC)C(=O)N[C@@H](Cc1c[nH]cn1)C(=O)N[C@@H](CCC(N)=O)C(=O)NC(C)(C)C(=O)N[C@@H](CCC(=O)O)C(=O)N[C@@H](Cc1ccccc1)C(=O)N[C@H](C(=O)N[C@@H](CCC(=O)O)C(=O)N[C@@H](Cc1c[nH]c2ccccc12)C(=O)N[C@@H](CC(C)C)C(=O)N[C@@H](CC(C)C)C(=O)N[C@@H](C)C(=O)N[C@@H](CCC(N)=O)C(=O)NCC(=O)N1CCC[C@H]1C(=O)N[C@@H](CO)C(=O)N[C@@H](CO)C(=O)NCC(=O)N[C@@H](C)C(=O)N1CCC[C@H]1C(=O)N1CCC[C@H]1C(=O)N1CCC[C@H]1C(=O)N[C@@H](CO)C(N)=O)[C@@H](C)CC
notes: as for B1
B4: SEQ ID NO: 10 (peptide)
peptide: Y[Aib]EGTFISDLSI[Aib]K([AEEA-AEEA-γGlu-C20 diacid])DRIHQEEFIEWLLAQGPSSGAPPPS-NH2
modifications: N-terminus assumed
SMILES: CC[C@H](C)[C@H](NC(=O)[C@H](Cc1ccccc1)NC(=O)[C@H](CCC(=O)O)NC(=O)[C@H](CCC(=O)O)NC(=O)[C@H](CCC(N)=O)NC(=O)[C@H](Cc1c[nH]cn1)NC(=O)[C@@H](NC(=O)[C@H](CCCNC(=N)N)NC(=O)[C@H](CC(=O)O)NC(=O)[C@H](CCCCNC(=O)COCCOCCNC(=O)COCCOCCNC(=O)CC[C@H](NC(=O)CCCCCCCCCCCCCCCCCCC(=O)O)C(=O)O)NC(=O)C(C)(C)NC(=O)[C@@H](NC(=O)[C@H](CO)NC(=O)[C@H](CC(C)C)NC(=O)[C@H](CC(=O)O)NC(=O)[C@H](CO)NC(=O)[C@@H](NC(=O)[C@H](Cc1ccccc1)NC(=O)[C@@H](NC(=O)CNC(=O)[C@H](CCC(=O)O)NC(=O)C(C)(C)NC(=O)[C@@H](N)Cc1ccc(O)cc1)[C@@H](C)O)[C@@H](C)CC)[C@@H](C)CC)[C@@H](C)CC)C(=O)N[C@@H](CCC(=O)O)C(=O)N[C@@H](Cc1c[nH]c2ccccc12)C(=O)N[C@@H](CC(C)C)C(=O)N[C@@H](CC(C)C)C(=O)N[C@@H](C)C(=O)N[C@@H](CCC(N)=O)C(=O)NCC(=O)N1CCC[C@H]1C(=O)N[C@@H](CO)C(=O)N[C@@H](CO)C(=O)NCC(=O)N[C@@H](C)C(=O)N1CCC[C@H]1C(=O)N1CCC[C@H]1C(=O)N1CCC[C@H]1C(=O)N[C@@H](CO)C(N)=O
notes: as for B1
B5: SEQ ID NO: 11 (peptide)
peptide: Y[Aib]EGTFISDLSI[Aib]K([AEEA-AEEA-γGlu-C18 diacid])DRIHQEEFIEWLLAQGPSSGAPPPS-OH
modifications: N-terminus assumed
SMILES: CC[C@H](C)[C@H](NC(=O)[C@H](Cc1ccccc1)NC(=O)[C@H](CCC(=O)O)NC(=O)[C@H](CCC(=O)O)NC(=O)[C@H](CCC(N)=O)NC(=O)[C@H](Cc1c[nH]cn1)NC(=O)[C@@H](NC(=O)[C@H](CCCNC(=N)N)NC(=O)[C@H](CC(=O)O)NC(=O)[C@H](CCCCNC(=O)COCCOCCNC(=O)COCCOCCNC(=O)CC[C@H](NC(=O)CCCCCCCCCCCCCCCCC(=O)O)C(=O)O)NC(=O)C(C)(C)NC(=O)[C@@H](NC(=O)[C@H](CO)NC(=O)[C@H](CC(C)C)NC(=O)[C@H](CC(=O)O)NC(=O)[C@H](CO)NC(=O)[C@@H](NC(=O)[C@H](Cc1ccccc1)NC(=O)[C@@H](NC(=O)CNC(=O)[C@H](CCC(=O)O)NC(=O)C(C)(C)NC(=O)[C@@H](N)Cc1ccc(O)cc1)[C@@H](C)O)[C@@H](C)CC)[C@@H](C)CC)[C@@H](C)CC)C(=O)N[C@@H](CCC(=O)O)C(=O)N[C@@H](Cc1c[nH]c2ccccc12)C(=O)N[C@@H](CC(C)C)C(=O)N[C@@H](CC(C)C)C(=O)N[C@@H](C)C(=O)N[C@@H](CCC(N)=O)C(=O)NCC(=O)N1CCC[C@H]1C(=O)N[C@@H](CO)C(=O)N[C@@H](CO)C(=O)NCC(=O)N[C@@H](C)C(=O)N1CCC[C@H]1C(=O)N1CCC[C@H]1C(=O)N1CCC[C@H]1C(=O)N[C@@H](CO)C(=O)O
notes: as for B1

These binders were tested against T2, human GLP-1 receptor (human, UniProt P43220 24-463) (assay: cell-based or functional assay).

| Binder | EC50 hGLP-1R 0% HSA, cAMP in HEK-293 cells |
| --- | --- |
| B1 | > 10000 pM |
| B2 | > 10000 pM |
| B3 | > 10000 pM |
| B4 | > 10000 pM |
| B5 | > 10000 pM |

The binders below were run against T1, human GIP receptor (assay: cell-based or functional assay).

| Binder | EC50 hGIPR 0% HSA, cAMP in HEK-293 cells | EC50 hGIPR 0.1% HSA, cAMP in HEK-293 cells |
| --- | --- | --- |
| B1 | 0.12 pM | 0.88 pM |
| B2 | 0.17 pM | 2.86 pM |
| B3 | 0.19 pM | 1.37 pM |
| B4 | 0.25 pM | 5.37 pM |
| B5 | 0.19 pM | 2.24 pM |

Target: T1, human GIP receptor
Assay: cell-based or functional assay
Remark: another data set of the same source

| Binder | hGIPR EC50, cAMP in human adipocytes | hGIPR Emax, cAMP in human adipocytes |
| --- | --- | --- |
| B1 | 500 pM | 116% |
| B2 | 300 pM | 121% |
| B3 | 500 pM | 116% |
| B4 | 400 pM | 127% |
| B5 | 1000 pM | 122% |

Each binder was assayed against T2, human GLP-1 receptor (assay: displacement of [125I]GLP-1 from hGLP-1R HEK-293 membranes, SPA).

| Binder | IC50 |
| --- | --- |
| B1 | 144000 pM |
| B2 | 105000 pM |
| B3 | 186000 pM |
| B4 | 223000 pM |
| B5 | 288000 pM |
